Reference: article PMC6628420

Target: CD11b, cellular receptor of LukAB, on PMNs (HL-60 cells differentiated with DMSO) (human (endogenous in HL-60)) (UniProt P11215)

Row | Substance | reversal of the toxicity of 0.42 nM LukABWT on PMNs by the mutant (0.4 pM-13 nM), set up as competition with LukABWT for receptor binding; mutant/WT molar ratio at 50% reversal (mutant/WT molar ratio)
1 | LukAB heterodimer LukA D39A / LukB R23E (complex) | 0.17
2 | LukAB heterodimer LukA D39R / LukB R23E (complex) | > 30
3 | LukAB heterodimer LukA wild type / LukB K12A/K19A/R23A (complex) | > 30
4 | LukAB heterodimer LukA wild type / LukB R23E (complex) | 0.64
5 | LukAB heterodimer LukA wild type / LukB with the N-terminal 30 residues of HlgB (complex) | 0.18
